This is an account of results in patent US8394929B2, “Nogo receptor-mediated blockade of axonal growth” (Yale University, priority 2000, dated 2013).

The test system of assay [1] is GST-Nogo-induced growth cone collapse. Kind of assay: Blockade of Nogo-induced growth cone collapse in chick DRG cultures. Format: cell-based. To be noted: GST-Nogo / Nogo-66 as collapsing agent. How it is done: (§1) For all experiments involving cell culture, the following methods were employed. The culture of embryonic chick E10 and E12 dorsal root ganglion explants and dissociated neurons utilized methods described for E7 dorsal root ganglion cultures (Takahashi et al., (1998) Nature Neurosci. 1, 487-493; Takahashi et al., (1999) Cell 99, 59-69; Goshima et al., (1995) Nature 376, 509-514; Jin & Strittmatter, (1997) J. Neurosci. […]). NGF-differentiated PC12 cells were cultured as described (Strittmatter et al., (1994) J. Neurosci. 14, 2327-2338). Embryonic spinal cord explants (rat E10 or chick E5) were cultured for 7-14 days in the presence of PDGF-AA to induce differentiation of some cells into mature oligodendrocytes (Vartanian et al., (1999) Proc. Natl. Acad. Sci. USA 96, 731-735). The procedure for growth cone collapse assays is identical to that for analysis of Sema3A-induced growth cone collapse (Takahashi et al., (1998) Nature Neurosci. 1, 487-493; Takahashi et al., (1999) Cell 99, 59-69; Goshima et al., (1995) Nature 376, 509-514; Jin & Strittmatter, (1997) J. Neurosci. 17, 6256-6263). The method for analysis of total neurite outgrowth has also been described (Goshima et al., (1995) Nature 376, 509-514; Jin & Strittmatter, (1997) J. Neurosci. 17, 6256-6263; Strittmatter et al., (1994) J. Neurosci. 14, 2327-2338). In outgrowth assays, proteins and peptides were added one hour after plating to minimize any effect on the total number of adherent cells. To test the effect of substrate-bound GST or GST-Nogo, the protein solutions were dried on poly-L-lysine coated glass, washed and then coated with laminin. For E12 cultures, the neuronal identity of cells was verified by staining with anti-neurofilament antibodies (2H3, Develomental Studies Hybridoma Bank) and neurites were traced by observation of rhodamine-phalloidin staining of F-actin in processes.
In the growth cone collapse assay, the response to Nogo was measured in the presence of various potential antagonistic peptides. […] This blockade supports the hypothesis that Nogo is a primary inhibitory component of CNS myelin.
For further testing, a synthetic peptide containing amino acid residues #1055-1094 of hNgR, acetylated at the […] was used [hereinafter “Peptide 140”]. […] Antagonist of Nogo-66 inhibitory activity may act by competing for, and thereby blocking NgR binding sites. To determine the antagonistic activity of Peptide 140, the above synthetic form of the peptide was added to E12 chick DRG explant cultures approximately 10 min before application of various concentrations of GST-NogoA (residues #1055-1120), TPA or Sema3A. 30 min later, cultures were fixed and growth cone collapse was assessed following staining with rhodamine-phalloidin.

Assay [2] deals with chick dorsal root ganglion neurons. Nature of the assay: Neurite outgrowth assay in chick DRG neurons. Format: cell-based. How it is done: as §1
For neurite outgrowth assays, plastic chamber slides were coated with 100 μg ml^−1 poly-L-lysine, washed, and dried. 3 μl drops of PBS containing GST-Nogo-66 were spotted and dried. Slides were then rinsed and coated with 10 μg ml fs24^−1 laminin before addition of dissociated E12 chick DRGs. AP-fusion proteins were added at the time of cell plating. Cultures were grown for 5-7 h after which neurite outgrowth was assessed.

In the next assay the target is T1, mouse NgR (Mus musculus, UniProt Q99PI8).
T1 construct: expressed in transfected cells; host or cells: COS-7
T1 sequence (Q99PI8 27-473): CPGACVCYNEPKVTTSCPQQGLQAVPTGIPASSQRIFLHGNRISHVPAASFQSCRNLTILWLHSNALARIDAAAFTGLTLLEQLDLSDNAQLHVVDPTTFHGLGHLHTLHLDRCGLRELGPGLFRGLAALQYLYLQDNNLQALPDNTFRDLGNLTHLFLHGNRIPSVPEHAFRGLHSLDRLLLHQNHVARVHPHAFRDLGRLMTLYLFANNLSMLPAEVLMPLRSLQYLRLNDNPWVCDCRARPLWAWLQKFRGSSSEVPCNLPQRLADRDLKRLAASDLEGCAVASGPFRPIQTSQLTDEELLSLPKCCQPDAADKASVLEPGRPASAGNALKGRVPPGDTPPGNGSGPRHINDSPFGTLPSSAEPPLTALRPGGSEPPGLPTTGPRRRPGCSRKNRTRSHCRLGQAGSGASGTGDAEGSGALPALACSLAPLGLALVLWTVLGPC
Nature of the assay: AP-fusion protein binding to COS-7 cells expressing mouse NgR.

[3] abbreviates: soluble protein or peptide added to culture.

As to “Pep2-41: 2-41 fragment of the 66 amino acid region of Nogo, acetylated and amidated at the termini (Ac-RIYKGVIQAIQKSDEGHPFRAYLESEVAISEELVQKYSNS-NH2)”, the “blockade of Nogo-induced growth cone collapse (in words)” value (“blockade” below) in assay [1] was “abolishes GST-Nogo-induced growth cone collapse”.

Turning to “Peptide 140: synthetic peptide of amino acids #1055-1094 of the human NogoA protein, acetylated and amidated at the termini (Ac-RIYKGVIQAIQKSDEGHPFRAYLESEVAISEELVQKYSNS-NH2; UniProt Q9NQC3 1055-1094, looked up, fragment)”, in assay [1], the “blockade” value is “significantly blocks growth cone collapse”. Besides, the “neurite/axon outgrowth (in words)” value in assay [2] (setting [3]) is reported as “no observable effect on neurite outgrowth”.

B1: NgR-ecto: secreted fragment of amino acid residues 1-348 of the murine NgR, in HEK293T conditioned medium (protein)
chain: CPGACVCYNEPKVTTSCPQQGLQAVPTGIPASSQRIFLHGNRISHVPAASFQSCRNLTILWLHSNALARIDAAAFTGLTLLEQLDLSDNAQLHVVDPTTFHGLGHLHTLHLDRCGLRELGPGLFRGLAALQYLYLQDNNLQALPDNTFRDLGNLTHLFLHGNRIPSVPEHAFRGLHSLDRLLLHQNHVARVHPHAFRDLGRLMTLYLFANNLSMLPAEVLMPLRSLQYLRLNDNPWVCDCRARPLWAWLQKFRGSSSEVPCNLPQRLADRDLKRLAASDLEGCAVASGPFRPIQTSQLTDEELLSLPKCCQPDAADKASVLE
modifications: left off: small tags and cut ends
notes: secreted fragment of amino acid residues 1-348 of the murine NgR, in HEK293T conditioned medium
With B1, the “blockade” value in assay [1] is “prevents Nogo-66-induced growth cone collapse”; in assay [1] (listed as NgR ectodomain protein), “blocked”; in assay [1] (listed as mNgR ectodomain protein), “blocked”. For the same molecule, in the assay with mouse NgR (0.5 nM AP-Nogo-66, NgR-ecto conditioned medium, COS-7 cells expressing full length NgR), the “reduction of binding of AP-Nogo-66” value is on record as 80%.

B2: GST-Nogo: GST fusion protein of the 66 amino acid lumenal-extracellular fragment of Nogo-A, expressed in E. coli (protein)
chain: RIYKGVIQAIQKSDEGHPFRAYLESEVAISEELVQKYSNSALGHVNCTIKELRRLFLVDDLVDSLK
modifications: also: GST fusion protein
notes: GST fusion protein of the 66 amino acid lumenal-extracellular fragment of Nogo-A, expressed in E. coli
For the molecule B2, the “neurite/axon outgrowth (in words)” value in assay [2] (setting [3]) was “blocked”; in assay [2] (soluble protein or peptide added to culture, listed as Nogo-66), “nearly abolishes axonal extension”; in assay [2] (substrate-bound / coated surfaces), “reduced to undetectable levels”; in assay [2] (substrate-bound / coated surfaces, listed as GST-hNogoA (residues #1055-1120)) it was “dramatically reduces growth”. Also, in the assay with mouse NgR, the “displacement of AP-Nogo (in words)” value is “displaces AP-Nogo”.
